Experiments:
[1] = target: BSA (Bos taurus, UniProt P02769); assay: Selectivity ELISA, unrelated protein (Fab); assay type: binding; settings: all concentrations tested
Excerpt: (§1) Selectivity determination for Fab of mAb1 to human CEACAM5 and other human CEACAM family members was done in ELISA assay. Proteins were coated on 96-well assay plates: huCEACAM5-His6 (R&D Systems #4128-CM), huCEACAM6-His6 (3934-CM R&D Systems and recombinant protein obtained from Syngene), huCEACAM1-His6 (2244-CM R&D Systems), huCEACAM3-His6 (C449 Novoprotein), huCEACAM7-His6 (C926 Novoprotein), huCEACAM8-His6 (C583 Novoprotein), huPSG1-His6 (CC66 Novoprotein), each protein was coating the plate at 12 nM concentration.

[2] = target: cynomolgus_monkey-CEACAM5; assay: Binding affinity on Octet Red (Fab format); settings: biotinylated Macaca fascicularis CEACAM5_ECD-His captured, KD=kd/ka
Excerpt: • To determine the binding affinity of soluble antibody analyte to captured target protein CEACAM5 (human or cynomolgus monkey Macaca fascicularis).

[3] = test system: other human CEACAM family members (huCEACAM6, huCEACAM1, huCEACAM3, huCEACAM7, huCEACAM8, huPSG1); assay: Selectivity ELISA, different CEACAM proteins (Fab); assay type: binding; settings: even when using 1000 nM Fab
Excerpt: as §1

[4] = test system: MDA-MB-468; assay: Flow cytometry binding to cell lines; parameters: species or system human; settings: 10 μg/mL primary antibody
Description: (§2) Method used: 5E5 to 1E6 cells were used for flow cytometry analyses using a BD FACSCanto II (BD Biosciences) in 5 mL polystyrene tubes. Staining with 10 μg/mL primary antibodies (mAb1, rb8G4, mouse monoclonal Agilent Dako #M7072 clone #IL7) and respective fluorescently labeled secondary antibodies (donkey anti-human IgG Jackson-Dianova #709-116-149; donkey anti-mouse IgG Jackson ImmunoResearch #715-116-150, donkey anti-rabbit IgG Jackson-Dianova #711-116-152) were conducted in 50 μL 1% PBS/BSA for 20 to 30 min at 4° C. Between and after staining steps, cells were washed thrice with 1% PBS/BSA and resuspended in 500 μL 1% PBS/BSA (including 0.2 μg/mL DAPI for live cell gating) for flow cytometry analyses. For data evaluation, FlowJo software (BD Biosciences) was used.

[5] = test system: NCI-H441; assay: Flow cytometry binding to cell lines; parameters: species or system human; settings: 10 μg/mL primary antibody
Description: as §2

[6] = test system: A549; assay: Flow cytometry binding to cell lines; parameters: species or system human; settings: 10 μg/mL primary antibody
Description: as §2

[7] = test system: MKN-45; assay: Flow cytometry binding to cell lines; parameters: species or system human; settings: 10 μg/mL primary antibody
Description: as §2

[8] = target: T1, CEACAM5 in cancer cell line lysates (Homo sapiens, UniProt P06731); assay: Western blot on cancer cell line lysates; assay type: binding; settings: CEACAM5-positive and -negative cell line lysates
T1 construct: endogenous in cells; host or cells: CEACAM5-positive and -negative cancer cell lines (RIPA lysates)
T1 sequence (P06731 35-685): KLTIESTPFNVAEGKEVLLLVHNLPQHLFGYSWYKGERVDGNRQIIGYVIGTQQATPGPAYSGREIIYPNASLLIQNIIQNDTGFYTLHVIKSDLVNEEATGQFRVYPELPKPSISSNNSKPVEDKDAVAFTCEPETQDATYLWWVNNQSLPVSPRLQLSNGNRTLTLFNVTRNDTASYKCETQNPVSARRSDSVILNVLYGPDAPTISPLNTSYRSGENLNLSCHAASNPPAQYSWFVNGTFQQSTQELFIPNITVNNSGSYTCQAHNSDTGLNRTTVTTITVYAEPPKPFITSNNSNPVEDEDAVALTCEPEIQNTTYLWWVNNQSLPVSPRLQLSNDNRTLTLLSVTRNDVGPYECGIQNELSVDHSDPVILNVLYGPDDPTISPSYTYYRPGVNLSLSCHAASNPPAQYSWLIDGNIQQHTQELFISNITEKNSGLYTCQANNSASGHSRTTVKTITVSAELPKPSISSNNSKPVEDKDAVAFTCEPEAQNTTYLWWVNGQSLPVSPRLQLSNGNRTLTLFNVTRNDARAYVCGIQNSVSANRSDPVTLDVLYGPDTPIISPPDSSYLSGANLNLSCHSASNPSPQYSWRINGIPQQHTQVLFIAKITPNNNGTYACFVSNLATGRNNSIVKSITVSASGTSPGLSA
Description: Method used: Western blots were performed according to standard protocols (Sambrook, J. & Russell, D. W., 2001. Molecular Cloning: A Laboratory Manual, Volume 1, CSHL Press). For SDS-PAGE followed by membrane wet blotting, 15 μg total protein of RIPA cell lysates quantified by BCA kit (Thermo Scientific, #23227) were loaded per lane. Criterion XT 4-12% gels (Bio-Rad, #3450125) using MOPS running buffer (Bio-Rad #1610788) were used in a Criterion electrophoresis cell (Bio-Rad, #1656001). Transfer of proteins was confirmed by Ponceau staining. Membranes were washed before and in-between staining with 0.5 μg/mL to 1 μg/mL primary (mAb1 or rb8G4) and secondary antibodies (anti-human IgG, Jackson ImmunoResearch #109-035-098 or anti-rabbit IgG, CellSignaling #7074) was conducted. Stained membranes were visualized by ECL detection reagent using a Fusion FX imaging system (Vilber).

[9] = target: T2, CEACAM-5 in FFPE cancer cell lines and human tumor tissues (Homo sapiens, UniProt P06731); assay: Immunohistochemistry on FFPE cell lines and human tissues
T2 construct: formaldehyde fixed paraffin embedded (FFPE) cancer cell line microarrays (CMAs) and human tumor tissues; from tissue; host or cells: FFPE cancer cell line microarrays and human tumor tissues
T2 sequence (P06731 35-676): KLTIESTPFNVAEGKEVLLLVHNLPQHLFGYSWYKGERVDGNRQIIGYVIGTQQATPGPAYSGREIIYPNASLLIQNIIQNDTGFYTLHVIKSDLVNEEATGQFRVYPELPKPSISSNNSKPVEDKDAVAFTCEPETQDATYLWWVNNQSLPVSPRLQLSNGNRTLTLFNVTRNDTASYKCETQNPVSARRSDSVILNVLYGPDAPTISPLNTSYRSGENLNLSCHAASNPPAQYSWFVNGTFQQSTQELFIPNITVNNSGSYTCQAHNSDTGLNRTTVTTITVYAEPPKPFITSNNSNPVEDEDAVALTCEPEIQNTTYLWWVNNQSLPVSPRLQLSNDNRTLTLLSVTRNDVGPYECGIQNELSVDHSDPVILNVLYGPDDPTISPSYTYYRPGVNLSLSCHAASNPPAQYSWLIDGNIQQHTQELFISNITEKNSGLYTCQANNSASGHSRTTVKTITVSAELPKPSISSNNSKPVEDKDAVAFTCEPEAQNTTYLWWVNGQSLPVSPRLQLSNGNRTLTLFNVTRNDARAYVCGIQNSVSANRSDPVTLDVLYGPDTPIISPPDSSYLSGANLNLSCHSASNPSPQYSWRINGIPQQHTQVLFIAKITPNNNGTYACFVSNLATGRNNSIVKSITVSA
Description: For the IHC staining with the anti-CEACAM-5 antibody rb8G4, sections of 4 μm from formaldehyde fixed paraffin embedded (FFPE) cancer cell line microarrays (CMAs) and human tumor tissues were mounted on charged slides (SuperFrost Ultra Plus, Thermo Fisher Scientific or TOMO, Matsunami). The staining procedure was performed using a Discovery XT (Roche Diagnostics) staining platform. Following deparaffinization, the sections were heated for epitope retrieval in Tris-EDTA buffer pH 8 (CC1, Roche Diagnostics). The sections were incubated with the primary monoclonal antibody rb8G4 diluted to 0.5 or 0.7 μg/ml in phosphate-buffered saline (PBS) or antibody diluent buffer (DCS). The clone DA1E (rabbit monoclonal IgG, NEB) served as isotype control antibody. The primary antibodies were followed by the HQ anti-rabbit IgG detection kit (Roche Diagnostics). […]
CMAs and the TMA with human organ tissue were stained and scanned with the NanoZoomer (Hamamatsu) with a resolution of 0.46 μm/pixel. […] The scans of the CMAs were analyzed with the image analysis software HALO (Indica Labs, USA). For the determination of the amount of antigen present, positive brown stained area was calculated as percent area of the viable tissue area. Staining (arbitrary units) is calculated as […]

Chain of BSA (P02769 25-607): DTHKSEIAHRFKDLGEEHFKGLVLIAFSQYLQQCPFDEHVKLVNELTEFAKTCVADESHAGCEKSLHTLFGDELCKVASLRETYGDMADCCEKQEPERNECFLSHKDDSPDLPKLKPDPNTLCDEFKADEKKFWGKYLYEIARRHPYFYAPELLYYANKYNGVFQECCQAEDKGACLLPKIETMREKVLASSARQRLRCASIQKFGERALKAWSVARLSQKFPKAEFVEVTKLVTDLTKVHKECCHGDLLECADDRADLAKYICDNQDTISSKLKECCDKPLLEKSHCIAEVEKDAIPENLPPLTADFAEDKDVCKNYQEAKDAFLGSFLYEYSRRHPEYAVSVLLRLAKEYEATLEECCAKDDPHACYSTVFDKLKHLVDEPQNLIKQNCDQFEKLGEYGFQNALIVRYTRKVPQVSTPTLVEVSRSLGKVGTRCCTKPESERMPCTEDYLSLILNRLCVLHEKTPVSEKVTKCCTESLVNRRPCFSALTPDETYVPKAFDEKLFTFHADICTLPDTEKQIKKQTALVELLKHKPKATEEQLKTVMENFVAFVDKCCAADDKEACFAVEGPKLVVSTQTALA
Chain of cynomolgus_monkey-CEACAM5 (as listed by the source): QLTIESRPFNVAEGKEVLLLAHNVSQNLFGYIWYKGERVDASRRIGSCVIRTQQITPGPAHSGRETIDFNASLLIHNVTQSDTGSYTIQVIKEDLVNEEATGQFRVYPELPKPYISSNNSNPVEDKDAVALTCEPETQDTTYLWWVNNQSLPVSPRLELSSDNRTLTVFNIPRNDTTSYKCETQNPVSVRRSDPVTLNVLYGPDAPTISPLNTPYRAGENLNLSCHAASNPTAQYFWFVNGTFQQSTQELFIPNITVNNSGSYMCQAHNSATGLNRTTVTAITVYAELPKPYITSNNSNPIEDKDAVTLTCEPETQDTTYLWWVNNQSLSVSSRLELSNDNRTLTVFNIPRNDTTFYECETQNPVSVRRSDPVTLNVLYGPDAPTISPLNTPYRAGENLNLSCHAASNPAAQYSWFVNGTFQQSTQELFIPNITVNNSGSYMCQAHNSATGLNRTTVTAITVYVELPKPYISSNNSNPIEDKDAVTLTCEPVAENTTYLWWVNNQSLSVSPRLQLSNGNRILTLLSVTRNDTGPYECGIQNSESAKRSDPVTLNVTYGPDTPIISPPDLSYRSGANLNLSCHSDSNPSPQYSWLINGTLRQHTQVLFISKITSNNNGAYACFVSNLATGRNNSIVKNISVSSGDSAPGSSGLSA

B1: Fab of mAb1: Fab format of antibody mAb1 (antibody, V domains shown)
VH: EVQLQESGPGLVKPSQTLSLTCTVSDGSVSRGGYYLTWIRQHPGKGLEWIGYIYYSGSTYFNPSLRSRVTMSVDTSKNQFSLKLSSVTAADTAVYYCARGIAVAPFDYWGQGTLVTVSS
VL: EIVLTQSPATLSVSPGERATLSCRTSQSVRSNLAWYQQKPGQAPRLLIYAASTRATGIPARFSGSGSGTEFTLTISSLQSEDFAVYYCQQYTNWPFTFGPGTKVDIK
[1]
  Binding to unrelated protein (BSA): did not bind
[2]
  Kd: 14.1 ± 2.53 nM
[3]
  Binding to the other human CEACAM family members: did not bind

B2: rb8G4 (antibody)
heavy: EVQLQESGPGLVKPSQTLSLTCTVSDGSVSRGGYYLTWIRQHPGKGLEWIGYIYYSGSTYFNPSLRSRVTMSVDTSKNQFSLKLSSVTAADTAVYYCARGIAVAPFDYWGQGTLVTVSSQPKAPSVFPLAPCCGDTPSSTVTLGCLVKGYLPEPVTVTWNSGTLTNGVRTFPSVRQSSGLYSLSSVVSVTSSSQPVTCNVAHPATNTKVDKTVAPSTCSKPTCPPPELLGGPSVFIFPPKPKDTLMISRTPEVTCVVVDVSEDDPEVQFTWYINNEQVRTARPPLREQQFNSTIRVVSTLPIAHEDWLRGKEFKCKVHNKALPAPIEKTISKARGQPLEPKVYTMGPPREELSSRSVSLTCMINGFYPSDISVEWEKNGKAEDNYKTTPAVLDSDGSYFLYSKLSVPTSEWQRGDVFTCSVMHEALHNHYTQKSISRSPGK
light: EIVLTQSPATLSVSPGERATLSCRTSQSVRSNLAWYQQKPGQAPRLLIYAASTRATGIPARFSGSGSGTEFTLTISSLQSEDFAVYYCQQYTNWPFTFGPGTKVDIKRDPVAPSVLLFPPSKEELTTGTATIVCVANKFYPSDITVTWKVDGTTQQSGIENSKTPQSPEDNTYSLSSTLSLTSAQYNSHSVYTCEVVQGSASPIVQSFNRGDC
[4]
  Quotient of MFI of antibody divided by MFI of secondary antibody only control: 1.0
[5]
  Quotient of MFI of antibody divided by MFI of secondary antibody only control: 3.2
[6]
  Quotient of MFI of antibody divided by MFI of secondary antibody only control: 1.1
[7]
  Quotient of MFI of antibody divided by MFI of secondary antibody only control: 36.2
[8]
  CEACAM5 detection in Western blot: specific to CEACAM5-positive cell lines
[9]; 104 cancer cell lines, CCLE dataset
  Pearson correlation coefficient r of IHC staining signal with CEACAM5 mRNA expression: 0.88
[9]; colorectal, gastric, esophageal and non-small cell lung cancer
  IHC staining of human tumor tissue: stained positive
